# Assay results: patent US20180133314A1 (Daiichi Sankyo, published 2018)
# B1: rat anti-FGFR2 antibody FR2-2nd_#028 (antibody, V domains shown)
# VH: EVQLVESGGGLVQPGRSLKLSCAASGFTFSDYGMAWVRQAPTKGLEWVATISYDGSSTYYRDSVKGRFTISRENAKSTLSLQMDSLRSEDTATYYCTRHPTYYYIMDAWGQGASVTVSS
# VL: DTVLTQSPALAVSLGQRVTISCRASKSVSTFMNWYQQKSGQQPKLLIYRASNLESGVPSRFSGSGSGTDFTLTIDPVEADDIANYYCQQSNELPLTFGSGTKLEIKR
# notes: Rat monoclonal from hybridoma; also called rat FR2-2nd_#028; rat antibody FR2-2nd_#028
# B2: mouse chimeric anti-FGFR2 antibody FR2-2nd_#028 (antibody, mouse IgG1, kappa, V domains shown)
# VH: B1 VH
# VL: B1 VL
# notes: The full-chain entries may include a secretory signal; also called mouse chimeric FR2-2nd_#028; mouse IgG1 chimeric FR2-2nd_#028
# B3: rat anti-FGFR2 antibody FR2-2nd_#023 (antibody, V domains shown)
# VH: EVQLVESGGGLVQPGRSMKLSCAASGLTFSNYGMAWVRQAPKKGLEWVAFISHDGGSSYYRDSVEGRFIISRDNAKSTLSLQMDSLRSEDTATYYCTTAGDYYSDNDWYFDFWGPGIMVTVSS
# VL: DIQMTQSPSLLSASVGDRVTLSCKASQSIYNSLAWYQQKLGEAPKLLIYDADSLQTGIPSRFSGSGSGTDYTLTISSLQPEDVATYFCQKYYSGWTFGGGTKLELKR
# notes: Rat monoclonal from hybridoma; also called rat FR2-2nd_#023; rat antibody FR2-2nd_#023
# B4: mouse chimeric anti-FGFR2 antibody FR2-2nd_#023 (antibody, mouse IgG1, kappa, V domains shown)
# VH: B3 VH
# VL: B3 VL
# notes: The full-chain entries may include a secretory signal; also called mouse chimeric FR2-2nd_#023; mouse IgG1 chimeric FR2-2nd_#023
# Key:
# [1] = target: T1, human FGFR2 IIIc variant protein (human, UniProt P21802 22-821); experiment: flow cytometry, hybridoma culture supernatant on transfected HEK293T cells
# T1 construct: also called hFGFR2 IIIc
# T1 sequence (P21802 22-821 limits assumed, change not shown): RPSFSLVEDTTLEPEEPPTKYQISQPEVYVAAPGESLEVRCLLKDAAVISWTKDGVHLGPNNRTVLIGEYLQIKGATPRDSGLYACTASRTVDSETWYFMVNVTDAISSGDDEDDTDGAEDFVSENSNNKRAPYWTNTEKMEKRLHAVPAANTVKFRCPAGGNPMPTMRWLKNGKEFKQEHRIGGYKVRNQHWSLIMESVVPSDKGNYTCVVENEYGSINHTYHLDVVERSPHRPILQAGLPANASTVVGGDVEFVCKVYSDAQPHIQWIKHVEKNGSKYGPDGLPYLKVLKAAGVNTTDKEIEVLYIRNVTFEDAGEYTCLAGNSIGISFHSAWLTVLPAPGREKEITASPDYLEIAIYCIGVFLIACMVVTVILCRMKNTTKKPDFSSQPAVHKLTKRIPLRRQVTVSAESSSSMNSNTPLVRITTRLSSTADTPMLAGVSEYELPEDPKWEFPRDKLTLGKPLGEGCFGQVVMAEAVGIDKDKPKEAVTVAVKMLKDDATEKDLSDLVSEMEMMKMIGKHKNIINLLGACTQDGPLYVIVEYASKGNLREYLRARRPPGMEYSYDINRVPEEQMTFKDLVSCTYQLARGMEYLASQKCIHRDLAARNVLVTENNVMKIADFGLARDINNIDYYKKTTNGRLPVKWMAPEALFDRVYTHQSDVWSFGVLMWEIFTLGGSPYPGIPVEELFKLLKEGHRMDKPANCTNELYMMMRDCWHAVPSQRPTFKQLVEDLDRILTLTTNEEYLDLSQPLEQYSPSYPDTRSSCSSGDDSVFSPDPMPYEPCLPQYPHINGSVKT
# Experimental: HEK293T cells were inoculated at a density of 5×10⁴ cells/cm² to a 225-cm² flask (manufactured by Sumitomo Bakelite Co., Ltd.) and cultured overnight at 37° C. under 5% CO₂ conditions in a DMEM medium containing 10% FBS. On the next day, the pcDNA-DEST40-FGFR2 IIIc, the pcDNA-DEST40-FGFR2 IIIb or a control pcDNA-DEST40 was transfected to the HEK293T cells using Lipofectamine 2000, and the cells were further cultured overnight at 37° C. under 5% CO₂ conditions. On the next day, the expression vector-transfected HEK293T cells were treated with TrypLE Express (manufactured by Life Technologies Corp.), washed with DMEM containing 10% FBS, and then suspended in PBS containing 5% FBS. The obtained cell suspension was used in flow cytometry analysis.
# The pcDNA-DEST40-FGFR2 IIIc and pcDNA-DEST40-FGFR2 IIIb binding specificity of the antibody produced by each hybridoma determined to be positive by Cell-ELISA in Example 1)-4 was further confirmed by flow cytometry. Each HEK293T cell suspension prepared in Example 1)-5-1 was centrifuged to remove a supernatant. […] The data was analyzed using Flowjo (manufactured by Tree Star Inc.). After removal of 7-aminoactinomycin D-positive dead cells by gating, the FITC fluorescence intensity of live cells was plotted to a histogram.
# [2] = target: T2, human FGFR3 IIIc variant protein (human, UniProt P22607 23-806); experiment: immunostaining of formalin-fixed, paraffin-embedded transfected 293alpha cell blocks (denatured), proteinase K retrieval
# T2 sequence (P22607 23-806 limits assumed, change not shown): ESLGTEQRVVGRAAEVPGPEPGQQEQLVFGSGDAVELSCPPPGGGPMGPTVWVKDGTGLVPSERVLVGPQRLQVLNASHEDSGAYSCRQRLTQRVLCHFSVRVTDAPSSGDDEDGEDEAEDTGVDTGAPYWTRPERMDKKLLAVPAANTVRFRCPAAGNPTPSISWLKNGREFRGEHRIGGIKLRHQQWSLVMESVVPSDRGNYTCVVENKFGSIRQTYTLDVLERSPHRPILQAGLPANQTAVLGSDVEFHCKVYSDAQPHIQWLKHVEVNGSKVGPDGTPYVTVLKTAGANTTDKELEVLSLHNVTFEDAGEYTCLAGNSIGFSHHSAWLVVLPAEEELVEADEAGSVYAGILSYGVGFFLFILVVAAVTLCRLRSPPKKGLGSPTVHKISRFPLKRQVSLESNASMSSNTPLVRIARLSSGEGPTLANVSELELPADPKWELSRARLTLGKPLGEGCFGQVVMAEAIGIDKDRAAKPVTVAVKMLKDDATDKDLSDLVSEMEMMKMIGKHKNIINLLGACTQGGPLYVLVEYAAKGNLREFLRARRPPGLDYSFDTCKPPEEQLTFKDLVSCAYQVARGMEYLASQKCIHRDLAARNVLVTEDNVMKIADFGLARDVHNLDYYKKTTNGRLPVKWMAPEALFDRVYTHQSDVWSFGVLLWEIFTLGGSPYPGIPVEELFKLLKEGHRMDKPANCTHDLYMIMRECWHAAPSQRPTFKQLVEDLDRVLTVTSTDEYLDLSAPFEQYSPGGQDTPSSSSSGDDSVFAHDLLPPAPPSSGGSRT
# [3] = target: T3, human FGFR2 IIIb variant protein (human, UniProt P21802-3 22-822); experiment: as above
# T3 construct: whole, on cells; also called hFGFR2 IIIb
# T3 sequence (P21802 other isoform, or with tags, fused parts or gaps mutant limits assumed): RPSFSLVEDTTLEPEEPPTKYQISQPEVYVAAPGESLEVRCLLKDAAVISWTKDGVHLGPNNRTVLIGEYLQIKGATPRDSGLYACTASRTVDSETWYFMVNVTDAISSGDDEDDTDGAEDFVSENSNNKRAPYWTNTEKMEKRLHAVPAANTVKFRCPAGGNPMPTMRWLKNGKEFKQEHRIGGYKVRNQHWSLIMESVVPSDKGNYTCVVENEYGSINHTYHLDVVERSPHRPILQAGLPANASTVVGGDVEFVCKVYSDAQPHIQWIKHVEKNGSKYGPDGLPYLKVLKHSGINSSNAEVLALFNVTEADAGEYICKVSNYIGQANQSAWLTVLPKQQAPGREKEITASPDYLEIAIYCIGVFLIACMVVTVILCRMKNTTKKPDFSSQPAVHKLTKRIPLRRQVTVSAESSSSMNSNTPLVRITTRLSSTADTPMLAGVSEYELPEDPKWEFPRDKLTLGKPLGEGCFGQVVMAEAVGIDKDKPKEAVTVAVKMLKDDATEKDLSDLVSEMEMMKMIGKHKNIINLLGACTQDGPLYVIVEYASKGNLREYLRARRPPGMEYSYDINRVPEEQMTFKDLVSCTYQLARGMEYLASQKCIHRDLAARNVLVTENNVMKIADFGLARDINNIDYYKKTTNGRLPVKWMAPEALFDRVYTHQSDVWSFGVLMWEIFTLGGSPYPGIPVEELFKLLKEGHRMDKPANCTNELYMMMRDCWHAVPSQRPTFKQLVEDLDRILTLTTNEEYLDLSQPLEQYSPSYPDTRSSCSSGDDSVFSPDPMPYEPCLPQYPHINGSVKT
# [4] = target: T4, human FGFR1 IIIc variant protein (human, UniProt P11362 22-822); experiment: as above
# T4 sequence (P11362 22-822 limits assumed, change not shown): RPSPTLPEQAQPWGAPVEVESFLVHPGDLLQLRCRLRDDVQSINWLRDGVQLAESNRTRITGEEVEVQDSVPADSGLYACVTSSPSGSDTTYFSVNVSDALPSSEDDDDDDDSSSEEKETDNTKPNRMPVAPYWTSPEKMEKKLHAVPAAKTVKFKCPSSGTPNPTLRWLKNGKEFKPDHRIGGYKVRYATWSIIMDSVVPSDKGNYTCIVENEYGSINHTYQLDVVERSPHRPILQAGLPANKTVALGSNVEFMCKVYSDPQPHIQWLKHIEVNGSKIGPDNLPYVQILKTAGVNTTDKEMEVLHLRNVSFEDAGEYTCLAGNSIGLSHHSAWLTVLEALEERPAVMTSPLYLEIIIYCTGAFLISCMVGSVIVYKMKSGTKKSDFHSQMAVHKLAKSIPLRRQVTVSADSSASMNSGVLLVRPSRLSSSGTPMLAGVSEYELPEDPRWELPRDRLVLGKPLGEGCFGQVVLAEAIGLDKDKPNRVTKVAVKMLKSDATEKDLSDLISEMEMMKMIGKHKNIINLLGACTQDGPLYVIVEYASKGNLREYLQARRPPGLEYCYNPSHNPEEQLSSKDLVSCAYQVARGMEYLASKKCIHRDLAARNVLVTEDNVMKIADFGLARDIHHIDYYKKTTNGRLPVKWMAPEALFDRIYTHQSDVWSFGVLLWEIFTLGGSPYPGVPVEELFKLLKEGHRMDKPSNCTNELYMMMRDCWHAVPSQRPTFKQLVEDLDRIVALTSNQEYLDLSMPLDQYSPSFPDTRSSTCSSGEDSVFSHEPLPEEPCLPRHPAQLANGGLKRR
# [5] = target: T3, human FGFR2 IIIb variant protein; experiment: flow cytometry on transfected HEK293T cells (non-denatured)
# Source text: (§1) The binding specificity of the mouse chimeric FR2-2nd_#028 and the mouse chimeric FR2-2nd_#023 prepared in Example 3)-7 for non-denatured molecules of the FGFR family was confirmed by flow cytometry. Each HEK293T cell suspension prepared in Example 3)-8-1 was centrifuged to remove a supernatant. Then, the pcDNA-DEST40-FGFR1 IIIb-, pcDNA-DEST40-FGFR1 IIIc-, pcDNA-DEST40-FGFR2 IIIb-, pcDNA-DEST40-FGFR2 IIIc-, pcDNA-DEST40-FGFR3 IIIb-, pcDNA-DEST40-FGFR3 IIIc-, pcDNA-DEST40-FGFR4-, or pcDNA-DEST40-transfected HEK293T cells were suspended by the addition of a negative control mouse IgG1 (manufactured by R&D Systems, Inc.) or the mouse chimeric FR2-2nd_#028 or the mouse chimeric FR2-2nd_#023 adjusted to 5 μg/ml, and left standing at 4° C. for 1 hour. The cells were washed once with PBS containing 5% FBS, then suspended by the addition of Fluorescein-Conjugated Goat IgG Fraction to Mouse IgG (manufactured by MP Biomedicals, Inc.) diluted 500-fold with PBS containing 5% FBS, and left standing at 4° C. for 1 hour. […] The data was analyzed using Flowjo (manufactured by Tree Star Inc.). After removal of 7-aminoactinomycin D-positive dead cells by gating, the average fluorescence intensity (MFI) of the FITC of live cells was calculated (FIG. 1).
# [6] = target: T1, human FGFR2 IIIc variant protein; experiment: immunostaining of formalin-fixed, paraffin-embedded transfected 293alpha cell blocks (denatured), 15 µg/mL
# Experimental: The cells were transfected with the FGFR1 IIIb, FGFR1 IIIc, FGFR2 IIIb, FGFR2 IIIc, FGFR3 IIIb, FGFR3 IIIc, or FGFR4 expression vector constructed in Examples 1)-3-1, 1)-3-2, and 1)-3-3 or an empty vector, i.e., pcDNA-DEST40-FGFR1 IIIb, pcDNA-DEST40-FGFR1 IIIc, pcDNA-DEST40-FGFR2 IIIb, pcDNA-DEST40-FGFR2 IIIc, pcDNA-DEST40-FGFR3 IIIb, pcDNA-DEST40-FGFR3 IIIc, pcDNA-DEST40-FGFR4, or pcDNA-DEST40 using FuGENE 6 (manufactured by Roche Diagnostics K.K.) and cultured for two nights at 37° C. under 5% CO₂ conditions. The obtained cells were recovered using TrypLE Express (manufactured by Life Technologies Corp.) and centrifuged to obtain a pellet, which was then washed once with PBS and centrifuged. The resulting pellet was fixed in 20% neutral buffered formalin.
# Each sample was stained using an automatic staining apparatus (LEICA BOND-III; manufactured by Leica Biosystems Nussloch GmbH). For deparaffinization, the sample was heated to 72° C., then Bond Dewax Solution (manufactured by Leica Biosystems Nussloch GmbH) was added thereto, and the sample was incubated for 30 seconds, followed by addition of ethanol and washing 4 times with Bond Wash Solution (manufactured by Leica Biosystems Nussloch GmbH). Enzyme Proteinase K (IHC) (manufactured by Leica Biosystems Nussloch GmbH) diluted 200-fold was added thereto, and the sample was incubated at 37° C. for 5 minutes. […]
# [7] = target: T2, human FGFR3 IIIc variant protein; experiment: immunostaining of formalin-fixed, paraffin-embedded transfected 293alpha cell blocks (denatured), heat retrieval
# [8] = target: T4, human FGFR1 IIIc variant protein; experiment: as above
# [9] = target: T3, human FGFR2 IIIb variant protein; experiment: immunostaining of formalin-fixed, paraffin-embedded blocks of 293alpha cells forced to express FGFR2 IIIb; antibody at 15 ug/mL, heat retrieval
# [10] = target: T1, human FGFR2 IIIc variant protein; experiment: immunostaining of formalin-fixed, paraffin-embedded blocks of 293alpha cells forced to express FGFR2 IIIc; antibody at 15 ug/mL, heat retrieval
# [11] = target: T2, human FGFR3 IIIc variant protein; experiment: flow cytometry on transfected HEK293T cells (non-denatured)
# Source text: as §1
# [12] = target: T3, human FGFR2 IIIb variant protein; experiment: immunostaining of formalin-fixed, paraffin-embedded blocks of 293alpha cells forced to express FGFR2 IIIb; antibody at 15 ug/mL, heat retrieval; remark: listed apart in the source
# [13] = target: T1, human FGFR2 IIIc variant protein; experiment: immunostaining of formalin-fixed, paraffin-embedded blocks of 293alpha cells forced to express FGFR2 IIIc; antibody at 15 ug/mL, heat retrieval; remark: listed apart in the source
binder,measurement,setting,value
B1,binding result,[1],binds
same,binding result,[2],no binding (tested: 15 µg/mL)
same,binding result,[3],no binding (tested: 15 µg/mL)
same,binding result,[4],no binding (tested: 15 µg/mL)
B2,binding result,[5],no binding (tested: 5 µg/ml)
same,binding result,[6],binds
same,binding result,[2],no binding (tested: 15 µg/mL)
same,binding result,[4],no binding (tested: 15 µg/mL)
B3,binding result,[7],no binding (tested: 15 µg/mL)
same,binding result,[8],no binding (tested: 15 µg/mL)
same,binding result,[9],binds
same,binding result,[10],binds
B4,binding result,[11],no binding (tested: 5 µg/ml)
same,binding result,[8],no binding (tested: 15 µg/mL)
same,binding result,[12],binds
same,binding result,[13],binds
